Values belong to the molecule of their own block, whether it stands above or below them. Non-standard residues stand in square brackets, D forms with d. Residues, ends and D or L forms follow the SMILES beside them. No end group written: not given here. *: point of attachment. X1 = 6‑(9-oxo-9H-acridin-10-yl)hexanoyl, O=C(CCCCCn1c2ccccc2c(=O)c2ccccc21)*; Sta = CC(C)C[C@H](N)[C@@H](O)CC(=O)O; Phe(NO2) = nitro-phenylalanine; Isovaleryl = CC(C)CC(=O)*; Nva = CCC[C@H](N)C(=O)O
Experiments:
[1] = Fluorescence lifetimes stated for labels and typical substrates; format: physicochemical; conditions: for lifetime of typical substrate: intact substrate, products 14 nano seconds; for lifetime of fluorescent label: free label
pepsin [2] = target: pepsin (Homo sapiens, UniProt P0DJD7); assay: Inhibition of pepsin activity, fluorescence lifetime protease assay; format: biochemical; conditions: pepsin 0.5 ng; 0.1M citrate buffer pH3.6; FIG. 8; read-out: apparent IC50, pepsin digestion of the peptide substrate
pepsin (Homo sapiens, UniProt P0DJD7), sequence (P0DJD7 63-388): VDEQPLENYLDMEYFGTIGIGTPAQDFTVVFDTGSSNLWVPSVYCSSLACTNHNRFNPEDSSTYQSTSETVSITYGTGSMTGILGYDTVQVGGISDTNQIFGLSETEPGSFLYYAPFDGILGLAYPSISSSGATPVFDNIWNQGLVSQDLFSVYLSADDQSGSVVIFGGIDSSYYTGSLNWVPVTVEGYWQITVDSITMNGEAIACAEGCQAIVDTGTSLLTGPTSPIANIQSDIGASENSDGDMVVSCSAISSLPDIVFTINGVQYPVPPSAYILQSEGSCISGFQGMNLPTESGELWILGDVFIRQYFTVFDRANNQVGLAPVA
Experimental: After incubation at ambient temperature, the fluorescence intensity and lifetime were recorded. Deconvolution using a non-linear least-squares analysis algorithm gave the fluorescence lifetimes.

[3] = Fluorescence lifetime of labelled substrate in protease assay buffers; format: physicochemical
Experimental: A no enzyme control (NEC) having 10 μl of buffer in place of enzyme was used. […] Since the lifetimes of substrate (10.3 ns) and product (13.8 ns) are different it was possible to monitor the appearance of product and disappearance of the substrate, the results are shown in FIG. 2.
A no enzyme control (NEC) having 10 μl of buffer in place of enzyme was used. […] Since the lifetimes of the substrate (11.5 ns) and product (14.5 ns) in Tris buffer are different it was possible to monitor the appearance of product and disappearance of the substrate, the results are shown in FIG. 3.
A no enzyme control (NEC) having 100 μl of buffer in place of enzyme was included.

[4] = tested on: T1, 6-(9-oxo-9H-acridin-10-yl) hexanoyl-CHLDIIW
T1 sequence: CHLDIIW

[5] = Fluorescence lifetime of labelled peptides by time-correlated single photon counting; format: physicochemical; conditions: 100 nM in TNC-T buffer pH7.5; excited at 405 nm, detection at 450 nm
Experimental: The lifetime of this solution was determined (2 ml volume in a cuvette) by a time-correlated single photon counting technique (Edinburgh Analytical Instruments FL900CDT spectrometer). Samples were excited at 405 nm using a laser diode, detection being at 450 nm.
The labelled peptide (6-(9-oxo-9H-acridin-10-yl) hexanoic acid- RPKPVENvaWRK) (SEQ ID NO:3) was also diluted to 100 nM in TNC-T buffer and the lifetime was similarly recorded.

pepsin [6] = assay: cell-based or functional assay
[7] = target: bovine kidney cathepsin D (bovine) (UniProt P80209); assay: cell-based or functional assay
bovine kidney cathepsin D (bovine), sequence (P80209 45-390 limits assumed): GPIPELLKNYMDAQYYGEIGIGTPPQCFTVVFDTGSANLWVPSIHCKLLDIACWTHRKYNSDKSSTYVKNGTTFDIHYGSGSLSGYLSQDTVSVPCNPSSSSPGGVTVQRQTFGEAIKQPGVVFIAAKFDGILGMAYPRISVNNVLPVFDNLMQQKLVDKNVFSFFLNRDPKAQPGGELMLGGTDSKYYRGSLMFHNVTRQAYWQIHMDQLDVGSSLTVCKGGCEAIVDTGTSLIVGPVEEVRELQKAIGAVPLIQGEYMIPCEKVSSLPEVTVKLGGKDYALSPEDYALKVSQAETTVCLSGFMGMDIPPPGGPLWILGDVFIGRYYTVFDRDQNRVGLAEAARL

[8] = tested on: T2, 6-(9-oxo-9H-acridin-10-yl) hexanoyl-Ala-Ala-Phe-Phe-Ala-Ala-Tyr [AAFFAAY]
T2 sequence: AAFFAAY

[9] = tested on: T3, 6-(9-oxo-9H-acridin-10-yl) hexanoic acid-Arg-Pro-Lys-Pro-Val-Glu-Nva-Trp-Arg-Lys-NH2
T3 sequence: RPKPVEXWRK

[10] = target: T4, 6-(9-oxo-9H-acridin-10-yl) hexanoic acid-AAFFAAF-nitro (not fully specified)
T4 chain: AAFFAAF

Molecule: 6-(9-oxo-9H-acridin-10-yl) hexanoyl- CHLDIIW (X1-CHLDIIW) [acridone-labelled Asp-n protease substrate]
- lifetime of typical substrate [1]: 10 nano seconds

Molecule: CC(C)CC(=O)N[C@H](C(=O)N[C@H](C(=O)N[C@@H](CC(C)C)[C@@H](O)CC(=O)N[C@@H](C)C(=O)N[C@@H](CC(C)C)[C@@H](O)CC(=O)O)C(C)C)C(C)C [Pepstatin A] (Isovaleryl-VV[Sta]A[Sta]-OH)
- IC50 (pepsin [2]): 0.88 nM

Molecule: 6-(9-oxo-9H-acridin-10-yl) hexanoic acid- AAFFAAF-nitro (X1-AAFFAA[Phe(NO2)]; not fully specified) [acridone-labelled nitro-phenylalanine peptide, thermolysin substrate]
- fluorescence lifetime of substrate ([3]; PBS buffer, pH7, stretched exponential analysis): 2.5 ns

Molecule: 6-(9-oxo-9H-acridin-10-yl) hexanoyl-Ala-Ala-Phe-Phe-Ala-Ala-Tyr (X1-AAFFAAY) [acridone-labelled protease substrate peptide]
- fluorescence lifetime of substrate ([3]; 50 mM Tris buffer, pH7.8, 10 mM CaCl2): 11.5 ns
- fluorescence lifetime of substrate ([3]; 0.1M citrate buffer, pH3.6, 0.005% Tween-20): 10.3 ns
- lifetime of typical substrate [1]: 10 nano seconds

Molecule: Asp-n
- protease digestion of labelled substrate (fluorescence intensity and lifetime) [4]: illustrates the digestion of 6-(9-oxo-9H-acridin-10-yl) hexanoyl -CHLDIIW (SEQ ID NO:2) with Asp-n

- lifetime of fluorescent label [1]: 14 ns
Molecule: O=C(O)CCCCCn1c2ccccc2c(=O)c2ccccc21 [6-(9-oxo-9H-acridin-10-yl) hexanoic acid]

Molecule: 6-(9-oxo-9H-acridin-10-yl) hexanoic acid- Arg-Pro-Lys-Pro-Val-Glu-Nva-Trp-Arg-Lys-NH2 (X1-RPKPVE[Nva]WRK-NH2; SMILES CCC[C@H](NC(=O)[C@H](CCC(=O)O)NC(=O)[C@@H](NC(=O)[C@@H]1CCCN1C(=O)[C@H](CCCCN)NC(=O)[C@@H]1CCCN1C(=O)[C@H](CCCNC(=N)N)NC(=O)CCCCCn1c2ccccc2c(=O)c2ccccc21)C(C)C)C(=O)N[C@@H](Cc1c[nH]c2ccccc12)C(=O)N[C@@H](CCCNC(=N)N)C(=O)N[C@@H](CCCCN)C(N)=O) [acridone-labelled MMP-3 substrate peptide]
- Lifetime (ns) [5]: 12.6 ns
- fluorescence lifetime of substrate ([3]; 50 mM Tris buffer pH 7.5, MMP-3 assay, FIG. 6): 10 ns
- lifetime of typical substrate [1]: 10 nano seconds

- lifetime of fluorescent label [1]: 17 ns
Molecule: CC(=O)Nc1ccc2c(c1)c(=O)c1ccccc1n2CCCCCC(=O)O [6-(2-(acetamido)-9-oxo-9H-acridin-10-yl) hexanoic acid]

- inhibition of pepsin digestion of the labelled peptide substrate (fluorescence lifetime), apparent IC50 (pepsin [6]): 0.88 nM
- cathepsin D enzyme activity at 12 nM pepstatin A against no inhibitor [7]: 5 fold
Molecule: Pepstatin A (peptide)

Molecule: pepsin
- protease digestion of labelled substrate (fluorescence lifetime) [8]: it was possible to monitor the appearance of product and disappearance of the substrate

Molecule: 6-(9-oxo-9H-acridin-10-yl) hexanoic acid- RPKPVE (Arg-Pro-Lys-Pro-Val-Glu) (X1-RPKPVE) [acridone-labelled peptide without tryptophan]
- Lifetime (ns) [5]: 13.9 ns

- lifetime of fluorescent label [1]: 8 ns
Molecule: O=C(O)CCCCCn1c2ccccc2c(=O)c2cc(Br)ccc21 [6-(2-bromo-9-oxo-9H-acridin-10-yl) hexanoic acid]

- lifetime of fluorescent label [1]: 4 ns
Molecule: O=C(O)CCCCCNC(=O)c1cccc2c(=O)c3ccccc3[nH]c12 [6-(9-oxo-9H-acridin-4-carboxamido) hexanoic acid]

Molecule: Matrix Metalloproteinase 3
- protease digestion of labelled substrate (fluorescence lifetime) [9]: enzyme-dependant appearance of the product (14 ns lifetime species) and disappearance of the substrate (10 ns lifetime species)

Molecule: chymotrypsin
- protease digestion of labelled substrate (fluorescence lifetime) [8]: it was possible to monitor the appearance of product and disappearance of the substrate

B1: thermolysin (protein)
chain: ITGTSTVGVGRGVLGDQKNINTTYSTYYYLQDNTRGNGIFTYDAKYRTTLPGSLWADADNQFFASYDAPAVDAHYYAGVTYDYYKNVHNRLSYDGNNAAIRSSVHYSQGYNNAFWNGSQMVYGDGDGQTFIPLSGGIDVVAHELTHAVTDYTAGLIYQNESGAINEAISDIFGTLVEFYANKNPDWEIGEDVYTPGISGDSLRSMSDPAKYGDPDHYSKRYTGTQDNGGVHINSGIINKAAYLISQGGTHYGVSVVGIGRDKLGKIFYRALTQYLTPTSNFSQLRAAAVQSATDLYGSTSQEVASVKQAFDAVGVK
- protease digestion of labelled substrate (fluorescence lifetime) [10]: it was possible to monitor the appearance of product and disappearance of the substrate

Reference: patent US7727739B2, “Methods for measuring enzyme activity” (GE Healthcare UK Limited, priority 2002, dated 2010)
